This is an account of results in article PMC10786891, “Massively parallel profiling of RNA-targeting CRISPR-Cas13d”.

B1: target 1 insU 3' of 21,insU 3' of 12 (mixed)
RNA 1: CACCCGUGCAAAAAUGCAGGGGUCUAAAACUGAGCGGAUAACCUCUCUAUGG
RNA 2: GGGAAUGGAUCCACAUCUACGAAUUCGUACCUAUAGAGAGGUUUAUCCGCUCACCGAGAUCGGAAGAGCACACGU
B2: target 1 C4G,U8C (mixed)
RNA 1: CACCCGUGCAAAAAUGCAGGGGUCUAAAACUGAGCGGAUAACCUCUCUAUGG
RNA 2: GGGAAUGGAUCCACAUCUACGAAUUCGUACCAUAGAGAGGUUACCCGGUCACCGAGAUCGGAAGAGCACACGU
B3: target 1 C2U,C22U (mixed)
RNA 1: CACCCGUGCAAAAAUGCAGGGGUCUAAAACUGAGCGGAUAACCUCUCUAUGG
RNA 2: GGGAAUGGAUCCACAUCUACGAAUUCGUAUCAUAGAGAGGUUAUCCGCUUACCGAGAUCGGAAGAGCACACGU
B4: target 1 insC 3' of 20,insG 3' of 9 (mixed)
RNA 1: CACCCGUGCAAAAAUGCAGGGGUCUAAAACUGAGCGGAUAACCUCUCUAUGG
RNA 2: GGGAAUGGAUCCACAUCUACGAAUUCGUACCACUAGAGAGGUUAGUCCGCUCACCGAGAUCGGAAGAGCACACGU
B5: target 1 insA 3' of 5,insA 3' of 5 (mixed)
RNA 1: CACCCGUGCAAAAAUGCAGGGGUCUAAAACUGAGCGGAUAACCUCUCUAUGG
RNA 2: GGGAAUGGAUCCACAUCUACGAAUUCGUACCAUAGAGAGGUUAUCCGAACUCACCGAGAUCGGAAGAGCACACGU
B6: target 1 C2A,G15A (mixed)
RNA 1: CACCCGUGCAAAAAUGCAGGGGUCUAAAACUGAGCGGAUAACCUCUCUAUGG
RNA 2: GGGAAUGGAUCCACAUCUACGAAUUCGUACCAUAGAAAGGUUAUCCGCUAACCGAGAUCGGAAGAGCACACGU
B7: target 1 C6U,A18G (mixed)
RNA 1: CACCCGUGCAAAAAUGCAGGGGUCUAAAACUGAGCGGAUAACCUCUCUAUGG
RNA 2: GGGAAUGGAUCCACAUCUACGAAUUCGUACCAUGGAGAGGUUAUCUGCUCACCGAGAUCGGAAGAGCACACGU
B8: target 1 A1G,C2A (mixed)
RNA 1: CACCCGUGCAAAAAUGCAGGGGUCUAAAACUGAGCGGAUAACCUCUCUAUGG
RNA 2: GGGAAUGGAUCCACAUCUACGAAUUCGUACCAUAGAGAGGUUAUCCGCUAGCCGAGAUCGGAAGAGCACACGU
B9: target 1 insA 3' of 13,insA 3' of 8 (mixed)
RNA 1: CACCCGUGCAAAAAUGCAGGGGUCUAAAACUGAGCGGAUAACCUCUCUAUGG
RNA 2: GGGAAUGGAUCCACAUCUACGAAUUCGUACCAUAGAGAGAGUUAUACCGCUCACCGAGAUCGGAAGAGCACACGU
B10: target 1 insU 3' of 7,insC 3' of 5 (mixed)
RNA 1: CACCCGUGCAAAAAUGCAGGGGUCUAAAACUGAGCGGAUAACCUCUCUAUGG
RNA 2: GGGAAUGGAUCCACAUCUACGAAUUCGUACCAUAGAGAGGUUAUCUCGCCUCACCGAGAUCGGAAGAGCACACGU
B11: target 1 U3A,G15A (mixed)
RNA 1: CACCCGUGCAAAAAUGCAGGGGUCUAAAACUGAGCGGAUAACCUCUCUAUGG
RNA 2: GGGAAUGGAUCCACAUCUACGAAUUCGUACCAUAGAAAGGUUAUCCGCACACCGAGAUCGGAAGAGCACACGU
B12: target 1 insC 3' of 18,insA 3' of 11 (mixed)
RNA 1: CACCCGUGCAAAAAUGCAGGGGUCUAAAACUGAGCGGAUAACCUCUCUAUGG
RNA 2: GGGAAUGGAUCCACAUCUACGAAUUCGUACCAUACGAGAGGUAUAUCCGCUCACCGAGAUCGGAAGAGCACACGU
B13: target 1 A9U,G17U (mixed)
RNA 1: CACCCGUGCAAAAAUGCAGGGGUCUAAAACUGAGCGGAUAACCUCUCUAUGG
RNA 2: GGGAAUGGAUCCACAUCUACGAAUUCGUACCAUAUAGAGGUUUUCCGCUCACCGAGAUCGGAAGAGCACACGU
B14: target 1 U8A,A9G (mixed)
RNA 1: CACCCGUGCAAAAAUGCAGGGGUCUAAAACUGAGCGGAUAACCUCUCUAUGG
RNA 2: GGGAAUGGAUCCACAUCUACGAAUUCGUACCAUAGAGAGGUUGACCGCUCACCGAGAUCGGAAGAGCACACGU
B15: target 1 U3C,C4U (mixed)
RNA 1: CACCCGUGCAAAAAUGCAGGGGUCUAAAACUGAGCGGAUAACCUCUCUAUGG
RNA 2: GGGAAUGGAUCCACAUCUACGAAUUCGUACCAUAGAGAGGUUAUCCGUCCACCGAGAUCGGAAGAGCACACGU
B16: target 1 U3C,U11G (mixed)
RNA 1: CACCCGUGCAAAAAUGCAGGGGUCUAAAACUGAGCGGAUAACCUCUCUAUGG
RNA 2: GGGAAUGGAUCCACAUCUACGAAUUCGUACCAUAGAGAGGGUAUCCGCCCACCGAGAUCGGAAGAGCACACGU
B17: target 1 insC 3' of 19,insC 3' of 15 (mixed)
RNA 1: CACCCGUGCAAAAAUGCAGGGGUCUAAAACUGAGCGGAUAACCUCUCUAUGG
RNA 2: GGGAAUGGAUCCACAUCUACGAAUUCGUACCAUCAGAGCAGGUUAUCCGCUCACCGAGAUCGGAAGAGCACACGU
B18: target 1 insC 3' of 5,insC 3' of 1 (mixed)
RNA 1: CACCCGUGCAAAAAUGCAGGGGUCUAAAACUGAGCGGAUAACCUCUCUAUGG
RNA 2: GGGAAUGGAUCCACAUCUACGAAUUCGUACCAUAGAGAGGUUAUCCGCCUCACCCGAGAUCGGAAGAGCACACGU
B19: target 1 A18G,U19A (mixed)
RNA 1: CACCCGUGCAAAAAUGCAGGGGUCUAAAACUGAGCGGAUAACCUCUCUAUGG
RNA 2: GGGAAUGGAUCCACAUCUACGAAUUCGUACCAAGGAGAGGUUAUCCGCUCACCGAGAUCGGAAGAGCACACGU
B20: target 1 U3A,C7U (mixed)
RNA 1: CACCCGUGCAAAAAUGCAGGGGUCUAAAACUGAGCGGAUAACCUCUCUAUGG
RNA 2: GGGAAUGGAUCCACAUCUACGAAUUCGUACCAUAGAGAGGUUAUUCGCACACCGAGAUCGGAAGAGCACACGU
B21: target 1 insU 3' of 21,insC 3' of 8 (mixed)
RNA 1: CACCCGUGCAAAAAUGCAGGGGUCUAAAACUGAGCGGAUAACCUCUCUAUGG
RNA 2: GGGAAUGGAUCCACAUCUACGAAUUCGUACCUAUAGAGAGGUUAUCCCGCUCACCGAGAUCGGAAGAGCACACGU
B22: target 1 insG 3' of 22,insA 3' of 15 (mixed)
RNA 1: CACCCGUGCAAAAAUGCAGGGGUCUAAAACUGAGCGGAUAACCUCUCUAUGG
RNA 2: GGGAAUGGAUCCACAUCUACGAAUUCGUACGCAUAGAGAAGGUUAUCCGCUCACCGAGAUCGGAAGAGCACACGU
B23: target 1 insG 3' of 10,insG 3' of 4 (mixed)
RNA 1: CACCCGUGCAAAAAUGCAGGGGUCUAAAACUGAGCGGAUAACCUCUCUAUGG
RNA 2: GGGAAUGGAUCCACAUCUACGAAUUCGUACCAUAGAGAGGUUGAUCCGCGUCACCGAGAUCGGAAGAGCACACGU
B24: target 1 U19G (mixed)
RNA 1: CACCCGUGCAAAAAUGCAGGGGUCUAAAACUGAGCGGAUAACCUCUCUAUGG
RNA 2: GGGAAUGGAUCCACAUCUACGAAUUCGUACCAGAGAGAGGUUAUCCGCUCACCGAGAUCGGAAGAGCACACGU
B25: target 1 insA 3' of 22,insG 3' of 3 (mixed)
RNA 1: CACCCGUGCAAAAAUGCAGGGGUCUAAAACUGAGCGGAUAACCUCUCUAUGG
RNA 2: GGGAAUGGAUCCACAUCUACGAAUUCGUACACAUAGAGAGGUUAUCCGCUGCACCGAGAUCGGAAGAGCACACGU
B26: target 1 C6A,A16U (mixed)
RNA 1: CACCCGUGCAAAAAUGCAGGGGUCUAAAACUGAGCGGAUAACCUCUCUAUGG
RNA 2: GGGAAUGGAUCCACAUCUACGAAUUCGUACCAUAGUGAGGUUAUCAGCUCACCGAGAUCGGAAGAGCACACGU
B27: target 1 insG 3' of 16,insA 3' of 7 (mixed)
RNA 1: CACCCGUGCAAAAAUGCAGGGGUCUAAAACUGAGCGGAUAACCUCUCUAUGG
RNA 2: GGGAAUGGAUCCACAUCUACGAAUUCGUACCAUAGAGGAGGUUAUCACGCUCACCGAGAUCGGAAGAGCACACGU

The target of this data set is T1, EsCas13d, nuclease-dead (Eubacterium siraeum, UniProt B0MS50, R295A;H300A;R849A;H854A).
T1 sequence: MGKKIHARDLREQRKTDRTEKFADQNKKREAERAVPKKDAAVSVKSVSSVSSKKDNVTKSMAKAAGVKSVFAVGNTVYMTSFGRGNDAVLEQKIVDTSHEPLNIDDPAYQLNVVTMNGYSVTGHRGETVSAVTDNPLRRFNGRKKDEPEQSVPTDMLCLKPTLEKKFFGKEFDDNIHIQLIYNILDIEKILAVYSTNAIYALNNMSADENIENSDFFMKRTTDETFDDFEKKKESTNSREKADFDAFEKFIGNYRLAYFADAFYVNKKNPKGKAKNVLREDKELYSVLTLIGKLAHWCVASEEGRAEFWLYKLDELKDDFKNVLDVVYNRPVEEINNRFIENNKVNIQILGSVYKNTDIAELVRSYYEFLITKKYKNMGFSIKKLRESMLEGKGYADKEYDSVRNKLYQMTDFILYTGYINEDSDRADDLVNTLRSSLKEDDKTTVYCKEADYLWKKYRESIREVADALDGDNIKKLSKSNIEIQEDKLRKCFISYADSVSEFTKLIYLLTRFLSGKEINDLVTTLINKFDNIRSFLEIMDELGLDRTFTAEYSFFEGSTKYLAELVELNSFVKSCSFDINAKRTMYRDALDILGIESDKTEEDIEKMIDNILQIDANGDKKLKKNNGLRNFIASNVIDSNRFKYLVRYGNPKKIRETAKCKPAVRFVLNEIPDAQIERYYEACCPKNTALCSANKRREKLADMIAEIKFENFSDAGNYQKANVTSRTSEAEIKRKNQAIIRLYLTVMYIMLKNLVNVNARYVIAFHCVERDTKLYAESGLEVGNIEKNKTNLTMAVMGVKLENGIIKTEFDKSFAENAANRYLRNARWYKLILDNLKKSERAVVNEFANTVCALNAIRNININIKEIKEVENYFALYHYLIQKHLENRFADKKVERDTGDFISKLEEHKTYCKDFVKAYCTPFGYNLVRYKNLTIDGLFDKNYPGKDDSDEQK
Nature of the data set: crRNA (strand 1, pre-loaded); Mg2+; 40 mM Tris-HCl pH 7.5, 150 mM NaCl, 6 mM MgCl2, 1 mM DTT, 0.1% Tween-20, 0.2 mg/ml BSA; 25 C; 10 min per concentration, then washed. The settings on record: tags: His6-TwinStrep-SUMO cleaved; N-terminal SNAP kept (SNAP-Surface 488); label: 3' end held by stalled T7 RNA polymerase.
On to B1, for which the Kd (as a rule, the free concentration of one partner at which half of the binding sites on the other are occupied at equilibrium, for simple one-to-one binding) turned out to be 21.5 ± 1.3 nM.

B2 had a Kd of 4.64 ± 0.25 nM.

Molecule B3 showed a Kd of 26 ± 6 nM.

In turn, B4 came in with a Kd of 10.2 ± 0.8 nM.

The molecule B5 yielded a Kd of 8.5 ± 0.7 nM.

Take B6: binding was put at a Kd of 20.2 ± 0.9 nM.

B7 came in with a Kd of 54 ± 18 nM.

Consider B8, for which the Kd amounted to 5.2 ± 0.32 nM.

Molecule B9 showed a Kd of 4.8 ± 0.23 nM.

Molecule B10 came in with a Kd of 12.5 ± 0.5 nM.

For the molecule B11, the Kd worked out at 20 ± 4 nM.

As to B12, the Kd is 74 ± 9 nM.

Take B13: the affinity, expressed as Kd, was 30 ± 4 nM.

For the molecule B14, the Kd turned out to be 19.3 ± 1 nM.

The molecule B15 showed a Kd of 49 ± 8 nM.

Molecule B16 yielded an equilibrium dissociation constant (Kd) of 35 ± 4 nM.

In the case of B17, the Kd was 45 ± 5 nM.

Regarding B18, binding was characterised by a dissociation constant (Kd) of 19.6 ± 3.4 nM.

Turning to B19, the affinity, expressed as Kd, was 98 ± 25 nM.

B20 came in with a Kd of 5.4 ± 0.4 nM.

Turning to B21, the Kd worked out at 71 ± 15 nM.

B22 yielded a Kd of 17.2 ± 1.6 nM.

Consider B23, for which the Kd was 35 ± 7 nM.

B24: the Kd worked out at 48 ± 5 nM.

With B25, binding was characterised by a dissociation constant (Kd) of 10.8 ± 0.8 nM.

Take B26: the Kd was 44 ± 4 nM.

In the case of B27, the Kd worked out at 14.5 ± 0.9 nM.
